Measured values as given in patent US20190085033A1 (published 2019).

Target: BG505-gp120 10MUT-KO (HIV-1, strain BG505)
Test: SPR, monomeric gp120

B1: PGT121 (antibody, V domains shown)
VH: QMQLQESGPGLVKPSETLSLTCSVSGASISDSYWSWIRRSPGKGLEWIGYVHKSGDTNYSPSLKSRVNLSLDTSKNQVSLSLVAATAADSGKYYCARTLHGRRIYGIVAFNEWFTYFYMDVWGNGTQVTVSS
VL: SDISVAPGETARISCGEKSLGSRAVQWYQHRAGQAPSLIIYNNQDRPSGIPERFSGSPDSPFGTTATLTITSVEAGDEADYYCHIWDSRVPTKWVFGGGTTLTVL
notes: also called mature PGT121
B1 was tested, and the Kd was 435 nM.
